Data published in patent publication US20220017627A1 (Bristol-Myers Squibb, published 2022).

What was measured:
[1] = biological target: T1, human IL-7Rα expressed on human T cells (whole blood / PBMCs) (human, UniProt P16871 21-239); test: flow cytometry binding, CD8+CD45RA- T cells in whole blood
T1 construct: Native receptor on primary cells; also called CD127
T1 chain: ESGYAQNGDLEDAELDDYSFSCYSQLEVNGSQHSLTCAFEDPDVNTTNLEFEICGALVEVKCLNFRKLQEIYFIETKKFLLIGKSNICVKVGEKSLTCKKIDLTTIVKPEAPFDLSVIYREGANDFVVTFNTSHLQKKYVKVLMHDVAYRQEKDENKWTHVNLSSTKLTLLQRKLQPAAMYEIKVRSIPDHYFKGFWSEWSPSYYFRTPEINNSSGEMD

[2] = biological target: T2, cynomolgus IL-7Rα expressed on cynomolgus T cells / leukocytes (cynomolgus, UniProt Q38IC7 21-459); test: flow cytometry, occupancy of IL-7Ra on CD4+CD45RA+ T cells of cynomolgus monkeys after a single i.v. dose, against serum concentration
T2 construct: also called cyno IL-7Rα
T2 sequence: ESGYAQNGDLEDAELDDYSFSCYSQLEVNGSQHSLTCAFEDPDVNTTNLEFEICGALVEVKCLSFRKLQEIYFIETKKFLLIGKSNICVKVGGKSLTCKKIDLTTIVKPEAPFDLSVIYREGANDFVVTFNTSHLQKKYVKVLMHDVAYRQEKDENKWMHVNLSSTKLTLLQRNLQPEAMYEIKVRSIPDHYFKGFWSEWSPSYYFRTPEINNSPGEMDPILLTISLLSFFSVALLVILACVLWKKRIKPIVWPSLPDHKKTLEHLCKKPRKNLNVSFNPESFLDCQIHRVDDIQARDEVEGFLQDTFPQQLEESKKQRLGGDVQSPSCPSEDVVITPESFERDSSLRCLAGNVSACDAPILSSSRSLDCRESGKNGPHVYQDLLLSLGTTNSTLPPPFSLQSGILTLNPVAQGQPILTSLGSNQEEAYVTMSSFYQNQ
Description: To confirm the above cross-reactivity data, cellular binding and functional blockade were also assessed. […] Then, at day 8 post-administration, PBMCs were isolated from the animals.

[3] = biological target: T3, his-tagged cynomolgus-IL7R extracellular domain construct (cynomolgus, UniProt Q38IC7 21-240); test: SPR (Biacore T200), pH 6.0 against pH 7.4
T3 construct: also called cyno IL-7Rα; not shown: his tag
T3 sequence: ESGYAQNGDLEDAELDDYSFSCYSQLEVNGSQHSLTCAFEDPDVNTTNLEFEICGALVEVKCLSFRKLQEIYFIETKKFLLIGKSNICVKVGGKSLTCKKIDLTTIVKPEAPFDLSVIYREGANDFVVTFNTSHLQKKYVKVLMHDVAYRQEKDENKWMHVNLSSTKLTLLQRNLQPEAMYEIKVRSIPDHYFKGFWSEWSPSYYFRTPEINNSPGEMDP
Description: (§1) Briefly, experiments were performed on a BIACORE™ T200 instrument (GE Healthcare, Chicago, Ill., USA) in a running buffer consisting of 10 mM NaPO4, 130 mM NaCl, 0.05% p20 (PBS-T) at either pH 7.4 or pH 6.0. The chip surface was prepared by immobilizing protein A on flow cell 1, 2, 3, and 4 of a CM5 sensor chip using ethyl(dimethylaminopropyl) carbodiimide/NHS to a density of 4000 RU. […] Purified extracellular domain constructs (generated in house) of his-tagged human-IL7R or cynomolgus-IL7R were tested for binding using a 2 fold serial dilution from 500 nM to 7.8 nM, with 180 s association time and 360 s dissociation time at 30 μl/min. Regeneration between cycles was accomplished using 2×30 second injections of 10 mM glycine-HCL pH 1.5. The data were analyzed using the Biacore T200 Evaluation software (GE Healthcare), and fit to a 1:1 Langmuir model.

[4] = biological target: T4, his-tagged human-IL7R extracellular domain construct (human, UniProt P16871 21-239); test: SPR (Biacore T200), pH 6.0 against pH 7.4
T4 construct: Generated in house; also called human IL-7Rα; not shown: his tag
T4 chain: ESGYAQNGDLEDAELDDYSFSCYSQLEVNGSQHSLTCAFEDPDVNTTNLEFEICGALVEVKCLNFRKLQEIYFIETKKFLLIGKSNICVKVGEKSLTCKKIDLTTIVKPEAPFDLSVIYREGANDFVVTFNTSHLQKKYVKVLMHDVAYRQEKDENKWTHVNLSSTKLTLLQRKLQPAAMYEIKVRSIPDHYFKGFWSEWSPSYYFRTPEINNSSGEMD
Description: as §1

[5] = biological target: T1, human IL-7Rα expressed on human T cells …; test: flow cytometry binding, CD4+CD45RA- T cells in whole blood
hIL-7R (Example 11) [6] = biological target: T5, hIL-7R (Example 11) (human, UniProt P16871 21-239); test: SPR (Biacore), reference of the ratio [cont'd]
T5 construct: Called full length hIL-7R for the mRNA display and hIL-7R for the Biacore runs; also called full length hIL-7R; human IL-7R
T5 chain: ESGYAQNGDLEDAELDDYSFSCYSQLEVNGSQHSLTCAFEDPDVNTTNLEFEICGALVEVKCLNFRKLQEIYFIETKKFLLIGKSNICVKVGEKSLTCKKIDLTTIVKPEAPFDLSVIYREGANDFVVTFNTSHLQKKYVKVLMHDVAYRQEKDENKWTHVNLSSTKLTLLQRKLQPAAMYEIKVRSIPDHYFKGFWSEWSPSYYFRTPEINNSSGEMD
Excerpt: (§2) Affinity (KD) of each variant binding to hIL-7R was obtained using this approach, and compared against the enrichment ratio (ER) obtained through NGS heat map analysis for the same variant.

[7] = biological target: T3, his-tagged cynomolgus-IL7R …; test: SPR (Biacore T200), antibody captured on protein A, his-tagged ECD as analyte, 37° C., pH 6.0
Description: as §1

[8] = biological target: T4, his-tagged human-IL7R extracellular …; test: as above
Description: as §1

[9] = biological target: T1, human IL-7Rα expressed on human T cells …; test: flow cytometry binding, CD8+CD45RA+ T cells in whole blood
[10] = biological target: T1, human IL-7Rα expressed on human T cells …; test: flow cytometry binding, CD4+CD45RA+ T cells in whole blood
[11] = biological target: T3, his-tagged cynomolgus-IL7R …; test: SPR (Biacore T200), antibody captured on protein A, his-tagged ECD as analyte, 37° C., pH 7.4
Description: as §1

[12] = biological target: T4, his-tagged human-IL7R extracellular …; test: as above
Description: as §1

[13] = biological target: T2, cynomolgus IL-7Rα expressed on …; test: cell-based or functional assay
[14] = biological target: T1, human IL-7Rα expressed on human T cells …; test: cell-based or functional assay
hIL-7R (Example 11) [15] = biological target: T5, hIL-7R (Example 11); test: Biacore, mAb captured on anti-human IgG CM5 chip, hu IL-7R as analyte (top curve 33.3nM), HBS-P+ pH 7.4, 37 C
Excerpt: as §2

[16] = biological target: T1, human IL-7Rα expressed on human T cells …; test: cell-based or functional assay

B1: Anti-IL-7R Antibody (Antibody A) (antibody, human IgG1, kappa, V domains shown)
VH: EVQLVESGGGLVQPGRSLRLSCAASGFTFDDHAMHWVRQAPGKGLEWVSGISWNSRGIGYADSVKGRFTIFRDNAKNSLYLQMNSLRAEDTALYYCAKDEYSRGYYVLDVWGQGTTVTVSS
VL: AIQLTQSPSSLSASVGDRVTITCRASQGISSALAWYQQKPGKAPKLLIYDASSLESGVPSRFSGSGSGTDFTLTISSLQPEDFATYYCQQFNSYPLWITFGQGTRLEIKR
notes: also called 18B1; 18B1 antibody
- EC50 [1]: 1.9 nM
- EC50 (read off the curve) [2]: ~0.04 µg/mL
- fold weaker binding at pH 6.0 than at pH 7.4 [3]: ~4 fold
- fold weaker binding at pH 6.0 than at pH 7.4 [4]: ~4 fold
- EC50 [5]: 3.3 nM
- KD Relative to 18B1 (hIL-7R (Example 11) [6]): 1
- Kd [7]: 7 nM
- koff [7]: 0.0016 s⁻¹
- kon [7]: 230000 M⁻¹ s⁻¹
- Kd [8]: 5.3 nM
- koff [8]: 0.0013 s⁻¹
- kon [8]: 240000 M⁻¹ s⁻¹
- EC50 [9]: 2 nM
- EC50 [10]: 1.4 nM
- Kd [11]: 1.7 nM
- koff [11]: 0.0005 s⁻¹
- kon [11]: 290000 M⁻¹ s⁻¹
- Kd [12]: 1.3 nM
- koff [12]: 0.0004 s⁻¹
- kon [12]: 310000 M⁻¹ s⁻¹
- IC50 of IL-7 mediated pSTAT5 activation against serum antibody concentration, cynomolgus monkeys [13]: ~2
- pSTAT5 IC50, IL-7 stimulated CD4+CD45RA+ T cells, CD (n = 10) [14]: 0.36 nM
- pSTAT5 IC50, IL-7 stimulated CD4+CD45RA+ T cells, NHV (n = 19) [14]: 0.6 nM
- pSTAT5 IC50, IL-7 stimulated CD4+CD45RA+ T cells, UC (n = 21) [14]: 0.34 nM
- pSTAT5 IC50, IL-7 stimulated CD4+CD45RA- T cells, CD (n = 10) [14]: 0.36 nM
- pSTAT5 IC50, IL-7 stimulated CD4+CD45RA- T cells, NHV (n = 19) [14]: 0.52 nM
- pSTAT5 IC50, IL-7 stimulated CD4+CD45RA- T cells, UC (n = 21) [14]: 0.28 nM
- pSTAT5 IC50, IL-7 stimulated CD8+CD45RA+ T cells, CD (n = 10) [14]: 0.29 nM
- pSTAT5 IC50, IL-7 stimulated CD8+CD45RA+ T cells, NHV (n = 19) [14]: 0.43 nM
- pSTAT5 IC50, IL-7 stimulated CD8+CD45RA+ T cells, UC (n = 21) [14]: 0.29 nM
- pSTAT5 IC50, IL-7 stimulated CD8+CD45RA- T cells, CD (n = 10) [14]: 0.23 nM
- pSTAT5 IC50, IL-7 stimulated CD8+CD45RA- T cells, NHV (n = 19) [14]: 0.38 nM
- pSTAT5 IC50, IL-7 stimulated CD8+CD45RA- T cells, UC (n = 21) [14]: 0.22 nM
- Kd (hIL-7R (Example 11) [15]): 1.4 nM
- koff (hIL-7R (Example 11) [15]): 0.00152 s⁻¹
- kon (hIL-7R (Example 11) [15]): 1.09e+06 M⁻¹ s⁻¹
- pSTAT5 IC50, CD4+CD45RA+ T cells in whole blood, IL-7 (0.25 ng/mL) [16]: 0.6 nM
- pSTAT5 IC50, CD4+CD45RA+ T cells in whole blood, IL-7 (2.0 ng/mL) [16]: 2.1 nM
